Assay results reported in paper doi:10.1101/2020.11.23.395327.

Columns and labels:
[1] = target: PII(WT)-His, signaling protein PII from Synechocystis sp. PCC 6803 (Synechocystis sp. PCC 6803) (UniProt Q55247); assay: BLI
[2] = target: PII(S49E), phosphomimetic variant (Synechocystis sp. PCC 6803) (UniProt Q55247); assay: BLI

Row | Substance | binding signal, fold lower than that of GST-PirA [1] [fold] | Kd [2] [nM] | Kd [1] [nM]
1 | tag-free PirA (natural protein) | 6 |  | 
2 | GST-PirA (GST-tagged PII-interacting regulator of arginine synthesis, Ssr0692) (natural protein) |  | 2500 | 2900
